{
  "source": "paper PMC2695410",
  "origin": "cited, not measured here",
  "target": "Calmodulin (Bos taurus) (UniProt P62157)",
  "note": "pKd: −log10 of the molar value.",
  "data": [
    {"substance": "Aquaporin 0 C-terminal peptide C-terminus (from UniProt P30301)", "values": [
      {"measurement": "pKd", "value": 6.32}
    ]}
  ]
}
